Sequences and labels used below:
B2: Human ubiquitous dynamin 2 isoform (Ub-DNM2), recombinant (natural protein, UniProt P50570-2 1-866, looked up)
chain: MGNRGMEELIPLVNKLQDAFSSIGQSCHLDLPQIAVVGGQSAGKSSVLENFVGRDFLPRGSGIVTRRPLILQLIFSKTEHAEFLHCKSKKFTDFDEVRQEIEAETDRVTGTNKGISPVPINLRVYSPHVLNLTLIDLPGITKVPVGDQPPDIEYQIKDMILQFISRESSLILAVTPANMDLANSDALKLAKEVDPQGLRTIGVITKLDLMDEGTDARDVLENKLLPLRRGYIGVVNRSQKDIEGKKDIRAALAAERKFFLSHPAYRHMADRMGTPHLQKTLNQQLTNHIRESLPALRSKLQSQLLSLEKEVEEYKNFRPDDPTRKTKALLQMVQQFGVDFEKRIEGSGDQVDTLELSGGARINRIFHERFPFELVKMEFDEKDLRREISYAIKNIHGVRTGLFTPDLAFEAIVKKQVVKLKEPCLKCVDLVIQELINTVRQCTSKLSSYPRLREETERIVTTYIREREGRTKDQILLLIDIEQSYINTNHEDFIGFANAQQRSTQLNKKRAIPNQVIRRGWLTINNISLMKGGSKEYWFVLTAESLSWYKDEEEKEKKYMLPLDNLKIRDVEKGFMSNKHVFAIFNTEQRNVYKDLRQIELACDSQEDVDSWKASFLRAGVYPEKDQAENEDGAQENTFSMDPQLERQVETIRNLVDSYVAIINKSIRDLMPKTIMHLMINNTKAFIHHELLAYLYSSADQSSLMEESADQAQRRDDMLRMYHALKEALNIIGDISTSTVSTPVPPPVDDTWLQSASSHSPTPQRRPVSSIHPPGRPPAVRGPTPGPPLIPVPVGAAASFSAPPIPSRPGPQSVFANSDLFPAPPQIPSRPVRIPPGIPPGVPSRRPPAAPSRPTIIRPAEPSLLD
notes: dynamin 2 (DNM2), human, ubiquitous isoform; same variant of exon 10 as the M-DNM2 plasmid; No tag is stated for the pVL1392 constructs; also called WT Ub-DNM2

The target of data set [1] is B2. The experiment in a line: pull-down; GST-SH3 of BIN1 (0.16, 0.4 or 1.6 ml supernatant) bound to GSH-Sepharose overnight, washed with 300 mM NaCl, 50 mM Tris pH 8.0, 5 mM imidazole, 1 mM DTT; 0.07 mg purified M-DNM2 or Ub-DNM2 added for 20 min, washed; resin loaded on SDS-PAGE. Conditions: both partners purified.
Data set [2] deals with the molecule itself. The experiment in a line: SEC-MALS; Superose 6 10/300 GL; 20 mM HEPES pH 7.4, 1.5 M NaCl, 1 mM EGTA, 1 mM DTT, 5% glycerol; 4 °C, 0.5 ml/min. (In gel filtration, larger molecules generally elute earlier.)

The values that follow come from publication PMC9652393, “Differential impact of ubiquitous and muscle dynamin 2 isoforms in muscle physiology and centronuclear myopathy” (Nature Communications, 2022).

B1: Human SH3 domain of BIN1 with Glutathione S-transferase (GST) tag (domain or fragment, UniProt O00499 520-593, looked up)
chain: GFMFKVQAQHDYTATDTDELQLKAGDVVLVIPFQNPEEQDEGWLMGVKESDWNQHKELEKCRGVFPENFTERVP
notes: amphiphysin 2 (BIN1), human, SH3 domain; The methods also describe cutting off the GST tag with PreScission on the beads; also called GST-SH3; GST-SH3 of BIN1
As for B1, the binding result in data set [1] was “binds”.
As to B2, the binding result in data set [2] is “binds”.
